Measured values reported in patent US12065471B2, “B*44 restricted peptides for use in immunotherapy against cancers and related methods” (Immatics Biotechnologies GmbH, priority 2018, dated 2024).

target: HLA-B*44:05 (Homo sapiens, UniProt P01889, A223V/A65T/A93T/A95T/D201E/D98Y/E176V/E187L/E204Q/E69K/G107R/H137Y/K202T/L105A/L119I/N104T/N87E/Q56L/Q94N/R106L/R155S/R180D/S101N/S121R/S35A/S48T/T118I/V36M/W191S/Y91S); assay: MHC binding assay (UV-ligand exchange, β2m ELISA, peptide exchange yield); settings: binding to HLA-B*44:05
From the text: Candidate peptides for T cell-based therapies according to the present invention were further tested for their MHC binding capacity (affinity). The individual peptide-MHC complexes were produced by UV-ligand exchange, where a UV-sensitive peptide is cleaved upon UV-irradiation and exchanged with the peptide of interest as analyzed. Only peptide candidates that can effectively bind and stabilize the peptide-receptive MHC molecules prevent dissociation of the MHC complexes. To determine the yield of the exchange reaction, an ELISA was performed based on the detection of the light chain (β2m) of stabilized MHC complexes. The assay was performed as generally described in Rodenko et al. (Rodenko et al., 2006)
96 well MAXISorp plates (NUNC) were coated over night with 2 μg/ml streptavidin in PBS at room temperature, washed 4× and blocked for 1 h at 37° C. in 2% BSA containing blocking buffer. Refolded HLA-A*02:01/MLA-001 monomers served as standards, covering the range of 15-500 ng/ml. Peptide-MHC monomers of the UV-exchange reaction were diluted 100-fold in blocking buffer. Samples were incubated for 1h at 37° C., washed four times, incubated with 2 μg/ml HRP conjugated anti-β2m for 1h at 37° C., washed again and detected with TMB solution that is stopped with […]. Absorption was measured at 450 nm.

Substance | Peptide exchange (MHC class I binding score, peptide exchange yield)
332 (SEADWLRFW; listed as Homo sapiens) [compound 332] | ++++ (>75% = ++++)
75 (LETSCGSSTAY; listed as Homo sapiens) [compound 75] | + (>10% = +)
383 (EEMERDLDMY; listed as Homo sapiens) [compound 383] | +++ (>50 = +++)
76 (RLNEHPSNNW; listed as Homo sapiens) [compound 76] | ++ (>20% = ++)
139 (AESDFSNNML; listed as Homo sapiens) [compound 139] | +++ (>50 = +++)
268 (EDLAVHLY; listed as Homo sapiens) [compound 268] | + (>10% = +)
67 (TEGAVEVKY; listed as Homo sapiens) [compound 67] | ++ (>20% = ++)
453 (SESKVFQLL; listed as Homo sapiens) [compound 453] | +++ (>50 = +++)
390 (GEYNKHAQLW; listed as Homo sapiens) [compound 390] | ++++ (>75% = ++++)
330 (SEHLFGTSY; listed as Homo sapiens) [compound 330] | +++ (>50 = +++)
157 (SQDVAGTTF; listed as Homo sapiens) [compound 157] | ++ (>20% = ++)
344 (DEIRVFGY; listed as Homo sapiens) [compound 344] | ++ (>20% = ++)
300 (KQTEATMTF; listed as Homo sapiens) [compound 300] | ++ (>20% = ++)
85 (SEIDEKVTDL; listed as Homo sapiens) [compound 85] | +++ (>50 = +++)
242 (CDAQIQYSY; listed as Homo sapiens) [compound 242] | +++ (>50 = +++)
308 (EEPKIDFRVY; listed as Homo sapiens) [compound 308] | +++ (>50 = +++)
110 (EVEVGEVKSW; listed as Homo sapiens) [compound 110] | + (>10% = +)
234 (TEEPQRLFY; listed as Homo sapiens) [compound 234] | + (>10% = +)
119 (VEVKYEGHW; listed as Homo sapiens) [compound 119] | ++++ (>75% = ++++)
405 (YEHAFNSIVW; listed as Homo sapiens) [compound 405] | ++++ (>75% = ++++)
222 (SEDTIHTHL; listed as Homo sapiens) [compound 222] | +++ (>50 = +++)
311 (REKDLPNYNW; listed as Homo sapiens) [compound 311] | ++++ (>75% = ++++)
258 (IEVSSPITL; listed as Homo sapiens) [compound 258] | ++++ (>75% = ++++)
247 (KESMLKTTL; listed as Homo sapiens) [compound 247] | +++ (>50 = +++)
181 (HEVAQDDHL; listed as Homo sapiens) [compound 181] | ++ (>20% = ++)
309 (SDDLRNVTW; listed as Homo sapiens) [compound 309] | ++++ (>75% = ++++)

Substance | Peptide exchange (MHC class I binding score, peptide exchange yield)
407 (MEFQNTQSY; listed as Homo sapiens) [compound 407] | +++ (>50 = +++)
223 (SEVEGLAFV; listed as Homo sapiens) [compound 223] | +++ (>50 = +++)
210 (AEGEPPPALAW; listed as Homo sapiens) [compound 210] | +++ (>50 = +++)
347 (LENPHVQSV; listed as Homo sapiens) [compound 347] | +++ (>50 = +++)
395 (AEDFVWAQW; listed as Homo sapiens) [compound 395] | ++++ (>75% = ++++)
133 (IEAPKLMVV; listed as Homo sapiens) [compound 133] | + (>10% = +)
358 (TEFHGGLHY; listed as Homo sapiens) [compound 358] | +++ (>50 = +++)
367 (TEFAVKLKI; listed as Homo sapiens) [compound 367] | +++ (>50 = +++)
260 (VELMFPLLL; listed as Homo sapiens) [compound 260] | +++ (>50 = +++)
398 (AEIIRYIF; listed as Homo sapiens) [compound 398] | + (>10% = +)
219 (WEVEVGDRTDW; listed as Homo sapiens) [compound 219] | +++ (>50 = +++)
356 (TEAVLNRY; listed as Homo sapiens) [compound 356] | ++ (>20% = ++)
176 (GETQQHIQL; listed as Homo sapiens) [compound 176] | +++ (>50 = +++)
204 (YERPTLVEL; listed as Homo sapiens) [compound 204] | +++ (>50 = +++)
146 (MEELRMLSF; listed as Homo sapiens) [compound 146] | +++ (>50 = +++)
446 (AENIKKFLY; listed as Homo sapiens) [compound 446] | +++ (>50 = +++)
52 (EDNPSGHTY; listed as Homo sapiens) [compound 52] | ++ (>20% = ++)
406 (GETVVLKNM; listed as Homo sapiens) [compound 406] | +++ (>50 = +++)
230 (AEALVDGKW; listed as Homo sapiens) [compound 230] | +++ (>50 = +++)
318 (SESSSFLKV; listed as Homo sapiens) [compound 318] | +++ (>50 = +++)
197 (NEILTIHF; listed as Homo sapiens) [compound 197] | ++ (>20% = ++)
186 (EEIFAHLGL; listed as Homo sapiens) [compound 186] | +++ (>50 = +++)
328 (HENGVLTKF; listed as Homo sapiens) [compound 328] | ++ (>20% = ++)
288 (TEHFLKKFF; listed as Homo sapiens) [compound 288] | +++ (>50 = +++)
120 (VTEGAVEVKY; listed as Homo sapiens) [compound 120] | + (>10% = +)
